Source: patent US20250215039A1, “NUCLEOSIDES FOR TREATING CANCER” (PRIMEFOUR THERAPEUTICS, INC., priority 2022, published 2025)

Tests used:
Assay in all cases: not read
Settings in all cases: other: substrate of human CDA, 37° C., Michaelis Menten fit, pH 7.5
not read [1] = substrate: C[C@]1(CO)O[C@@H](n2cc(F)c(N)nc2=O)C[C@@H]1O
Description: (§1) Transfer 7.2 μl of each of the substrate DMSO stock in step 2 into a 500 μl 96-Well V-bottom Microplate, clear SBS footprint, cat #P-96-450V-C
Add 352.8 μl assay buffer to the wells
(§2) For deaminated product compounds mix 4 μl product with 196 μl assay buffer
(§3) This was incubated at 37° C. for 1 h. 200 μl of this mixture was transferred into the assay plate to serve as the product control.
(§4) Product+buffer: mix 80 ul of the 2.5× intermediate product stocks (from step 3) with 120 ul assay buffer into product control (no enzyme) wells
(§5) Incubate the plate alongside the 20 nM CDA enzyme intermediate stock at 37° C. to temperature equilibrate reagents
(§6) Add 120 μl of the 20 nM enzyme mix into the Substrate+CDA wells and start reading at 290 nm every 30 s for about 60 min
50 and 200 uM substrate and product
(§7) In 100 mM Tris, pH 7.5, 100 mM KCl, 0.8% carryover DMSO
5 min incubation at 37° C.
(§8) Absorbance at 290 nm every 30 s at 37° C. for 1 h using FlexStation 3
(§9) Convert A290 to concentration of substrate remaining at time t after enzyme addition:
(§10) [formula] • where: • St=absorbance reading of: substrate+CDA wells at time t • So=Average absorbance reading of: substrate+buffer wells • Po=Average absorbance reading of: product+buffer wells • [S]t=initial substrate concentration • Use GraphPad to plot [substrate] against time to calculate initial velocity or slope (μMs^−1) i.e. the linear range of each curve • Express rate in s^−1 by dividing initial velocity by the total enzyme concentration.
(§11) Plot rate against [substrate] and fit data to standard Michaelis Menten equation to obtain kcat and KM parameters.

not read [2] = substrate: C[C@]1(CO)O[C@@H](n2cc(F)c(N)nc2=O)[C@@H](O)[C@@H]1O
Description: as §1
Add 352.8 μl assay buffer to the wells
as §2, §3, §4, §5, §6
50 and 200 uM substrate and product
as §7
5 min incubation at 37° C.
as §8, §9, §10, §11

not read [3] = substrate: C[C@]1(CO)O[C@@H](n2ccc(N)nc2=O)[C@@H](O)[C@@H]1O
Description: as §1
Add 352.8 μl assay buffer to the wells
as §2, §3, §4, §5, §6
50 and 200 uM substrate and product
as §7
5 min incubation at 37° C.
as §8, §9, §10, §11

not read [4] = substrate: Nc1ccn([C@@H]2O[C@H](CO)[C@@H](O)C2(F)F)c(=O)n1
Description: as §1
Add 352.8 μl assay buffer to the wells
as §2, §3, §4, §5, §6
50 and 200 uM substrate and product
as §7
5 min incubation at 37° C.
as §8, §9, §10, §11

B1: human cytidine deaminase (CDA) (Homo sapiens) (protein)
chain: MAQKRPACTLKPECVQQLLVCSQEAKKSAYCPYSHFPVGAALLTQEGRIFKGCNIENACYPLGICAERTAIQKAVSEGYKDFRAIAIASDMQDDFISPCGACRQVMREFGTNWPVYMTKPDGTYIVMTVQELLPSSFGPEDLQKTQ
- Km (not read [1]): 1003 µM
- kcat (not read [1]): 13.3 s⁻¹
- kcat/Km (not read [1]): 23000 M⁻¹ s⁻¹
- Km (not read [2]): 1057.8 µM
- kcat (not read [2]): 6.1 s⁻¹
- kcat/Km (not read [2]): 5000 M⁻¹ s⁻¹
- Km (not read [3]): 196 µM
- kcat (not read [3]): 2.8 s⁻¹
- kcat/Km (not read [3]): 16000 M⁻¹ s⁻¹
- Km (not read [4]): 520.8 µM
- kcat (not read [4]): 26.8 s⁻¹
- kcat/Km (not read [4]): 0.53 (M^−1s^−1) × 10^5
